In patent US20200148733A1:

Target: human IL-23 (human) (UniProt Q9NPF7)
Experiment: cell-based or functional assay

human IL-23 (human), sequence (Q9NPF7 20-189, chain 1 of 2): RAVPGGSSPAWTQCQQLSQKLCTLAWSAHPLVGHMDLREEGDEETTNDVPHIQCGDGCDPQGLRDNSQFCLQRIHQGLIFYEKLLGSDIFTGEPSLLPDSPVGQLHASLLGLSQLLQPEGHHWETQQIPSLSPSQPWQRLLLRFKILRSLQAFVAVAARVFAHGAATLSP
human IL-23 (human), sequence (P29460 23-328, chain 2 of 2, further chain): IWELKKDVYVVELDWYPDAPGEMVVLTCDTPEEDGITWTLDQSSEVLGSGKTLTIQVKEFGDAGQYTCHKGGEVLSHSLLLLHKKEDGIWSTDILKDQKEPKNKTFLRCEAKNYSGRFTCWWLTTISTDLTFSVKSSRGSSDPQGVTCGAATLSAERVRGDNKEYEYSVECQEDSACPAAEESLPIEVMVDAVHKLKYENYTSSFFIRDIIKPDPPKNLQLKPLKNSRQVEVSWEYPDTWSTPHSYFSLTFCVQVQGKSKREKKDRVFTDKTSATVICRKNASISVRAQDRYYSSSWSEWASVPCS

Question: Which EC50 [nM] AVERAGE, hIL-23-induced proliferation of Ba/F3 cells expressing hIL-23R and hIL-12Rβ1 does the source give for “benchmark antibody ustekinumab (Stelara, obtained from Janssen-Cilag)” here?
Answer: 2.4 nM

Question: What about the EC50 [nM] Exp 1, hIL-23-induced proliferation of Ba/F3 cells expressing hIL-23R and hIL-12Rβ1 of the same substance?
Answer: 1.9 nM

Question: And the EC50 [nM] Exp 2, hIL-23-induced proliferation of Ba/F3 cells expressing hIL-23R and hIL-12Rβ1?
Answer: 2.3 nM

Question: What about the EC50 [nM] Exp 3, hIL-23-induced proliferation of Ba/F3 cells expressing hIL-23R and hIL-12Rβ1 of the same substance?
Answer: 3.5 nM

Question: And the EC50 [nM] Exp 4, hIL-23-induced proliferation of Ba/F3 cells expressing hIL-23R and hIL-12Rβ1?
Answer: 2 nM

Question: And the IC50, hIL-23-induced proliferation of Ba/F3 cells expressing hIL-23R and hIL-12Rβ1?
Answer: 11.1 nM
